Measured values published in the supplement of paper PMC12764529.
± gives the half width of the 95% confidence interval.

Experiments:
[1] = folding stability dG unfold from chymotrypsin proteolysis; higher = more stable
In short: (§1)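 Sequencing followed digestion of designed mini-proteins with trypsin and chymotrypsin, each at 11 concentrations in threefold dilutions together with a no-protease condition. The mini-proteins were under 80 residues, had no cysteine, sat in a PA-tagged cDNA display construct, and were kept only if AlphaFold2 dimer inter-PAE was above 15. From the counts, Bayesian fitting gave K50, and unfolding free energy was derived against a sequence-predicted unfolded-state K50 and a shared folded-state K50, per protease or combined.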

[2] = folding stability dG unfold from trypsin proteolysis; higher = more stable
In short: as §1

[3] = folding stability dG unfold (combined trypsin and chymotrypsin); higher = more stable
In short: as §1

Sequence | folding stability dG unfold [1] | folding stability dG unfold [2] | folding stability dG unfold [3]
SKKIIIKITITDPKNKKKIKITEIIFDKKTKKIIIKIEVENVKNKEKLKSKEDVLEAIKKLLEKLGFKPISA [r9_258_TrROS_Hall] | 2.47 ± 0.35 kcal/mol | 1.81 ± 0.23 kcal/mol | 2.25 ± 0.47 kcal/mol
SAGMNLSPEEIAERIREEAKKKYPNSEVEVRIVSQPPTTIVLEVKITIYFPEEGGSIIEEPRVITIDRLSAG [r14_187_JUSTAS] | 2.17 ± 0.13 kcal/mol | 2.05 ± 0.076 kcal/mol | 2.15 ± 0.13 kcal/mol
SAGMTIELPNATVTLERVPVPATGESAWVVTVTARHPDGSTPTVVAVFPEDTPPEDVLAAALALAEELESAG [r5_704_TrMRF] | 4.62 ± 0.075 kcal/mol | 4.75 ± 0.44 kcal/mol | 4.78 ± 0.16 kcal/mol
SAGGSAGGSASVTVSPTPDDTWRVEVTETRYFFDPDGRPIGPVTITSSRVVSSEEEAAALLSAGGSAGGSAG [r3_232_JUSTAS] | 0.397 ± 0.15 kcal/mol | 0.537 ± 0.038 kcal/mol | 0.49 ± 0.15 kcal/mol
SAGGSAGGSAGGTVTFFEENEFVIDVPDPLTGRPIRIEVPGDPNKPEEIEARAEELRLSSAGGSAGGSAGGS [r10_379_JUSTAS] | -0.157 ± 0.096 kcal/mol | 0.187 ± 0.066 kcal/mol | 0.0609 ± 0.072 kcal/mol
SAGGSVVTIVEVVPEDKKIVIKAPGNPITIPLENIKEIKLIPEKGYLEITINNTTIKVPLNNPNSISAGGSA [r2_48_JUSTAS] | 1.09 ± 0.058 kcal/mol | 0.308 ± 0.051 kcal/mol | 0.779 ± 0.071 kcal/mol
SAGGSAGGSKPELVIPITFPVLVKNPLDGKIYPVKVEIHIFYYPDKPIIEITLINPDGKPFPFSAGGSAGGS [r12_283_TrMRF] | 1.67 ± 0.038 kcal/mol | 2.13 ± 0.064 kcal/mol | 1.93 ± 0.066 kcal/mol
SSMTTTEKKYTYNDSSISVSTTTLPDGSKLITTPITRKNPDGIDVTETLTTLDKGSGVTPVSPSTSTLNTSA [r9_554_JUSTAS] | 0.602 ± 0.035 kcal/mol | -1.24 ± 0.18 kcal/mol | 0.177 ± 0.069 kcal/mol
SAGGMKVKKIPVIVKILRKKDKKPIKEIPALAYKVDDKIYLVFEKPKDIKIAKEIAEKTGLPIEIYPSAGGS [r16_327_TrMRF] | 2.02 ± 0.062 kcal/mol | 1.01 ± 0.025 kcal/mol | 1.66 ± 0.066 kcal/mol
SAGGSAGGSMPVLVSESPVGTLPDGTKVTRVTYRFPNGEILTETVVEPGPGPPTPENVALTLASAGGSAGGS [r12_775_JUSTAS] | 1.19 ± 0.23 kcal/mol | 2.04 ± 0.18 kcal/mol | 1.6 ± 0.29 kcal/mol
SAGGSMNPSVSVEEEVFPDGVTRLKLTFSDGKELEAEVTRHADGNVQVTLYDKSPGKKTTYTIPLSSAGGSA [r2_99_JUSTAS] | 1.57 ± 0.22 kcal/mol | 0.65 ± 0.12 kcal/mol | 1.21 ± 0.21 kcal/mol
SAGGSAGGSAKEIKLKITKVTFTENEDGTLTATFELEDGYRVTIKFNKKTNKVEIKIEPLPSAGGSAGGSAG [r3_438_TrROS_Hall] | 4.12 ± 0.082 kcal/mol | 2.47 ± 0.091 kcal/mol | 3.74 ± 0.15 kcal/mol
SLGPLVELAELFPDFEPLGVEEEPLEDGGRLLRVIGRIPEIGAYLLIEVRLPPGGGIESIRAEWVPEDELSA [r9_274_TrMRF] | 4.28 ± 0.071 kcal/mol | 3.4 ± 0.12 kcal/mol | 3.95 ± 0.11 kcal/mol
SAGGSAGGSAGGSDGALIFIIHIKMEMELEPNPDGPPKWDMDWDIEPTWIQIDDPEDFKSAGGSAGGSAGGS [r4_450_TrROS] | 2.48 ± 0.15 kcal/mol | 1.59 ± 0.13 kcal/mol | 2.19 ± 0.21 kcal/mol
SAGMEITVPGPFLSQEVFDLPDRPYLVLPTPEGIAVIDLVTGEAVFYPFGTTEPIVVPVPPGEELDLLSAGG [r19_138_TrMRF] | 1.97 ± 0.042 kcal/mol | 1.73 ± 0.091 kcal/mol | 1.83 ± 0.088 kcal/mol
SAGMVTYTVTVPYAPAGKRVRVTLFDEGKEIASFEGVENAPYNQTFTFTAPPFTIRIEYEDGSVDPLPASAG [r5_646_TrMRF] | 4.05 ± 0.058 kcal/mol | 3.32 ± 0.27 kcal/mol | 3.57 ± 0.23 kcal/mol
SAGGSAGGSAMITIKVSPDVPVPSNTPITLPNGKKVKATVTPVPSPEDGTPVLKITLDPNLISAGGSAGGSA [r18_476_JUSTAS] | 0.891 ± 0.023 kcal/mol | -0.934 ± 0.24 kcal/mol | 0.446 ± 0.044 kcal/mol
SAGGAGDQPVVIVATGSDGSPRVFPFKTKEPFKVTVNFPDEKRVFTVPADEPFVFDAPDGDILLDASSAGGS [r16_456_TrMRF] | 0.697 ± 0.12 kcal/mol | -0.23 ± 0.11 kcal/mol | 0.394 ± 0.095 kcal/mol
SAGGSASLEEVASLPASALAAAAGLTALSVEVTREPDGTVTVTIETRPPDGPVVTVTYTFPVDPAASAGGSA [r15_805_JUSTAS] | 2.6 ± 0.098 kcal/mol | 0.848 ± 0.2 kcal/mol | 2.06 ± 0.39 kcal/mol
SAGGSAGGSAGGMTVERREVFPLGESLVITETREVLDPSSDVPVTVETRVEVLPPEVPPSAGGSAGGSAGGS [r10_599_JUSTAS] | 0.25 ± 0.12 kcal/mol | -1.32 ± 0.74 kcal/mol | 0.033 ± 0.18 kcal/mol
SAGGMLTLEEIKKAKPGEKLEIEVDGKIYLVEIKKNENGELTLTVKKVDKETGEIVEEKTISLEELLSAGGS [r16_763_TrROS_Hall] | 3.78 ± 0.077 kcal/mol | 2.91 ± 0.11 kcal/mol | 3.53 ± 0.07 kcal/mol

Sequence | folding stability dG unfold [1] | folding stability dG unfold [2] | folding stability dG unfold [3]
SAGGSAGGSAGGKPKKILNIELVLKGKDGKKYKLKIEIYNYPDKPKIYITFPDGTTIEASAGGSAGGSAGGS [r10_404_TrMRF] | 5.28 ± 0.19 kcal/mol | 3.54 ± 0.13 kcal/mol | 5.15 ± 0.21 kcal/mol
SAGGSAGGSAGGEAFEVERVELVLDPETGTPYLLVYFRDGRVLVYDLPRGTWRVVPAEELSAGGSAGGSAGG [r11_922_TrMRF] | 3.06 ± 0.076 kcal/mol | 2.21 ± 0.049 kcal/mol | 2.81 ± 0.065 kcal/mol
SAGGSAGGSMDLKNAKIISIEETENEIKITIEVDGKLYTITISKEEAEKLKKLLEDLNIEIIPSAGGSAGGS [r12_604_TrROS_Hall] | 4.3 ± 0.079 kcal/mol | 4.14 ± 0.23 kcal/mol | 4.27 ± 0.14 kcal/mol
SAGGMKVVIYVKDPEKFLKAIEEIENIPLENVKFEPLEGDYYKYEFPNLEAVEELIKKGYDILKIEPSAGGS [r16_381_TrMRF] | 2.57 ± 0.03 kcal/mol | 1.96 ± 0.09 kcal/mol | 2.34 ± 0.083 kcal/mol
SAGGSAGGSMWIVRIEYENPDNGKTYTIPIFVPPEDAEEIAKEIAEQLPGIKDIKVEIYPLNDSAGGSAGGS [r12_757_TrROS] | 2.22 ± 0.079 kcal/mol | 1.52 ± 0.064 kcal/mol | 2.03 ± 0.16 kcal/mol
SAGGSAGGSAANVTREPRFDPSTNLVRTLVRFPDGSVREEILEITKNPDGTLTYKRFERPPSAGGSAGGSAG [r3_474_JUSTAS] | 1.59 ± 0.18 kcal/mol | 0.383 ± 0.12 kcal/mol | 1.19 ± 0.14 kcal/mol
SAGGEIEIVVETPEDLEKAKELAEELAKALEEAGLEIEEVKVELVEETVVNEDGEEKKRYVLKITFPSAGGS [r16_591_TrROS_Hall] | 3.24 ± 0.086 kcal/mol | 2.46 ± 0.1 kcal/mol | 2.97 ± 0.14 kcal/mol
SAGMKIKITLPNGAEFESNPETGKIEVIDPETGKPLIAYIPKDRPDIAFIFDPDNPKPLFEVKIDEIYPSAG [r5_761_TrMRF] | 1.27 ± 0.042 kcal/mol | 0.889 ± 0.016 kcal/mol | 1.11 ± 0.051 kcal/mol
SAGGSAGGSFKVPGGYKVVSVEEDPENKTVEITFADGSKLTIDIEDPNVFKPVKVEAPEGFDVSAGGSAGGS [r12_149_TrMRF] | 2.04 ± 0.038 kcal/mol | 1.55 ± 0.081 kcal/mol | 1.89 ± 0.054 kcal/mol
SAGGSAGGSAGGGNSLSSVRVVPVTLRTSEPLEQDGDPRPREFTETTVVRITETVPPGLSAGGSAGGSAGGS [r10_118_JUSTAS] | 0.57 ± 0.082 kcal/mol | 0.0729 ± 0.18 kcal/mol | 0.356 ± 0.11 kcal/mol
SMYTTVTVEVDITLADKTPDGTWTPVGTFPIKVTVTVPESRPEEAREEALARARAEVEAFAASRGLTVVVSA [r9_356_JUSTAS] | 2.21 ± 0.043 kcal/mol | 1.76 ± 0.043 kcal/mol | 2.07 ± 0.079 kcal/mol
SEPLTPEEVEKFAEWIAKELNEEHGKEVKVEVEYHPDDGYFRAEIEIPNGRRIEITFNPEFGQLDIEVEDSA [r9_9_TrROS] | 2.36 ± 0.062 kcal/mol | 1.31 ± 0.18 kcal/mol | 1.71 ± 0.27 kcal/mol
SAGMVEIVHDPAGYYTVNVTLTKEGKPTSRTIRVPPELSPEEVKALVEELAKEEGVDDVEVTVIPLPESAGG [r19_31_JUSTAS] | 1.51 ± 0.12 kcal/mol | 1.1 ± 0.035 kcal/mol | 1.41 ± 0.12 kcal/mol
SPVKIRIIVPKGMDPEMANFIVKEIMKHLGLPPGAPVEILPWEDLQKNPDVHQALEEAEKEGADIVILIRSA [r9_1147_TrROS] | 4.16 ± 0.16 kcal/mol | 3.08 ± 0.14 kcal/mol | 3.84 ± 0.1 kcal/mol
SAGGGSSSLPAVPVSVETFTFPYKTEEEAKAAAEELAKKLEAEDGKPVKVEVSFDPATGTATVTITVVSAGG [r13_517_JUSTAS] | 3.791 ± 0.036 kcal/mol | 4.2 ± 0.16 kcal/mol | 3.815 ± 0.035 kcal/mol
SAGGSAKKKKGKKKKKIKKIKIKLKLPPGAEIVKIDKEKGVIYIRNKKTNKIYKIDLKTGKIVEIPSAGGSA [r15_452_TrROS_Hall] | 3.66 ± 0.26 kcal/mol | 1.86 ± 0.17 kcal/mol | 3.27 ± 0.39 kcal/mol
SAGGNIKIQVENHEDGWYMKIWVPGNGKEQEYPFEPGDTIDTLPPGAEPVKIEWFHMNDNPQEFELDSAGGS [r8_487_TrROS] | 0.45 ± 0.23 kcal/mol | 0.295 ± 0.11 kcal/mol | 0.421 ± 0.18 kcal/mol
SAGGSAMKGLSVERVELDGEEVVRIEIETPAGGSETLELSLRDPEAVEAYLAALKAAGVIAEILPESAGGSA [r15_575_JUSTAS] | 0.713 ± 0.11 kcal/mol | 1.24 ± 0.027 kcal/mol | 1.11 ± 0.14 kcal/mol
SAGGSAFRVQTWDDGKPRKIPIGESLDDLKDQIDDNPNYPIYIEFPNGKPFHMPWSDIKNMIDQLKSAGGSA [r15_36_TrROS] | -0.196 ± 0.47 kcal/mol | 0.172 ± 0.17 kcal/mol | -0.0315 ± 0.28 kcal/mol
SASPPRRFMIKVTYPDGKTTLSYGDDPEQTRAALEAQIAEEHPGNYTIEYTELSPDEWASPEKAEALLSSAG [r14_900_JUSTAS] | 1.71 ± 0.073 kcal/mol | 2.27 ± 0.034 kcal/mol | 2.01 ± 0.078 kcal/mol
SAGGSAGGSEVEITVTETEDTVTVTIRFKDTGKTVTITVPKDMTPEEVLARAKELLKKLGIEPSAGGSAGGS [r12_764_TrROS_Hall] | 3.75 ± 0.16 kcal/mol | 3.91 ± 0.18 kcal/mol | 3.88 ± 0.25 kcal/mol
